From the RNAGym collection of RNA variant scans (doi:10.1073/pnas.2313332121)

B1: TPR t1 (parent)
chain: GACCAAUCUGCCCUCAGAGCUCGAGAACAUCUUCGGAUGCAGAGGAGGCAGGCUUCGGUGGCGCGAUAGCGCCAACGUCCUCAACCUCCAAUGCAUCCCACCACAUGAUGAUGCCUGAAGAGCCUUGGUUUUUUG

Variants of: B1
Experiment: polymerase ribozyme fitness, log enrichment relative to wild type (log ratio); higher = more active; in vitro selection for triplet polymerase activity
Procedure, shortened: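 Fitness is a logarithmic measure of how a genotype enriched relative to the wild type, with replicate averages weighted by inverse variance. The logarithm uses base 2, and enrichment came from Illumina sequencing of input and output libraries. Those libraries were PCR-built, transcribed mutants of each subunit of a heterodimeric triplet polymerase ribozyme, passed through one triplicate in vitro selection round that included frozen incubation at −7 °C, gel excision of extended constructs and streptavidin-bead capture. Genotypes were kept only if they had ≥10 input reads and ≥1 read per output.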

Which “polymerase ribozyme fitness (log ratio)” value does the source give for C11U C20U G63A U87C here?
Its value is -1.21.

Which “polymerase ribozyme fitness (log ratio)” value does the source give for C31A C72U C123A U125G U129A U133G here?
Its value is -6.38.

With C73U A90G A121C as the variant, how does the “polymerase ribozyme fitness (log ratio)” value read?
The value was 2.05.

For C12G A83U C104A U125G, which “polymerase ribozyme fitness (log ratio)” value is on record?
Its value is -2.42.

With C62A A103U as the variant, how does the “polymerase ribozyme fitness (log ratio)” value read?
Its value is -5.71.

With C4U C13U U38A C53A as the variant, how does the “polymerase ribozyme fitness (log ratio)” value read?
Its value is -1.25.

Which “polymerase ribozyme fitness (log ratio)” value does the source give for C8U C76G U96A G120U U129C here?
Its value is 0.287.

Which “polymerase ribozyme fitness (log ratio)” value does the source give for C89A C101A G117A here?
Its value is -5.

Which “polymerase ribozyme fitness (log ratio)” value does the source give for G44C C53A C88U A100U here?
Its value is -0.527.

For C13A G71A, which “polymerase ribozyme fitness (log ratio)” value is on record?
Its value is -0.843.

With A37C G48C C53U U54A G60C C88A G93A C115U A121G as the variant, how does the “polymerase ribozyme fitness (log ratio)” value read?
Its value is -6.81.

With G17U G69U A111G U133G as the variant, how does the “polymerase ribozyme fitness (log ratio)” value read?
The value was 0.0717.

For G17A G52C G60C U81C C115G, which “polymerase ribozyme fitness (log ratio)” value is on record?
Its value is -3.56.

With U33A C104U U112A as the variant, how does the “polymerase ribozyme fitness (log ratio)” value read?
Its value is -3.5.

Which “polymerase ribozyme fitness (log ratio)” value does the source give for G36C G57C G61A U106C G113U here?
The value was -3.7.

Which “polymerase ribozyme fitness (log ratio)” value does the source give for U14A G61C here?
The value was -3.93.

With C4G A5G C11U C73G C89A G113U C114U G122U U129G as the variant, how does the “polymerase ribozyme fitness (log ratio)” value read?
Its value is -5.02.

For C3U C73G A83G, which “polymerase ribozyme fitness (log ratio)” value is on record?
The value was -2.1.

With A43U A46G U96G U112A G128A as the variant, how does the “polymerase ribozyme fitness (log ratio)” value read?
The value was -3.6.

Which “polymerase ribozyme fitness (log ratio)” value does the source give for C56A C70U here?
Its value is -0.609.

For C49G C79U U96G, which “polymerase ribozyme fitness (log ratio)” value is on record?
Its value is -0.996.

With C49A G51U G52U A90G A119U as the variant, how does the “polymerase ribozyme fitness (log ratio)” value read?
The value was -2.42.

Which “polymerase ribozyme fitness (log ratio)” value does the source give for C8U C72G U87G C94U G122A here?
The value was -0.203.

For C89G U125A, which “polymerase ribozyme fitness (log ratio)” value is on record?
The value was -2.07.

With A29G C40U as the variant, how does the “polymerase ribozyme fitness (log ratio)” value read?
The value was -2.17.

For C4U C11G G60A C72G C82U C97U A108G G120A, which “polymerase ribozyme fitness (log ratio)” value is on record?
Its value is -3.71.

Which “polymerase ribozyme fitness (log ratio)” value does the source give for G47U U96C A118G here?
The value was -1.69.

Which “polymerase ribozyme fitness (log ratio)” value does the source give for G47U C53G C62A here?
The value was -2.11.

Which “polymerase ribozyme fitness (log ratio)” value does the source give for G58A G77U U81A U87C C102A here?
The value was -4.48.

With A43U G63A as the variant, how does the “polymerase ribozyme fitness (log ratio)” value read?
Its value is -2.51.

With G69U A121C as the variant, how does the “polymerase ribozyme fitness (log ratio)” value read?
Its value is 2.82.

Which “polymerase ribozyme fitness (log ratio)” value does the source give for C8A C13G U14G G48A G77A G128C here?
The value was -5.17.

With C15U C34A G60C C82G A105G G113U as the variant, how does the “polymerase ribozyme fitness (log ratio)” value read?
The value was -6.14.

With A16G U92G C98G C114A as the variant, how does the “polymerase ribozyme fitness (log ratio)” value read?
Its value is -6.53.

With C20A A66G as the variant, how does the “polymerase ribozyme fitness (log ratio)” value read?
The value was -4.25.

For U54C G61C, which “polymerase ribozyme fitness (log ratio)” value is on record?
Its value is -2.14.

Which “polymerase ribozyme fitness (log ratio)” value does the source give for G71U G113C C114U G128A here?
Its value is -3.3.

For G48C G93A C99A G113C, which “polymerase ribozyme fitness (log ratio)” value is on record?
Its value is -7.38.

For U7G C20U, which “polymerase ribozyme fitness (log ratio)” value is on record?
Its value is -1.37.

Which “polymerase ribozyme fitness (log ratio)” value does the source give for G48A G61U U78C here?
The value was -0.213.

With C8U C40A as the variant, how does the “polymerase ribozyme fitness (log ratio)” value read?
The value was -1.07.

With C20A C98G as the variant, how does the “polymerase ribozyme fitness (log ratio)” value read?
The value was -5.84.

For U59C G71A G127C U132C, which “polymerase ribozyme fitness (log ratio)” value is on record?
Its value is -2.94.

For A27U C62U G117U C123G, which “polymerase ribozyme fitness (log ratio)” value is on record?
The value was -5.03.

With C73U U81G C82G C123A as the variant, how does the “polymerase ribozyme fitness (log ratio)” value read?
Its value is 0.626.

Which “polymerase ribozyme fitness (log ratio)” value does the source give for C11A C62U C94A here?
The value was -2.43.

With C34U G61A as the variant, how does the “polymerase ribozyme fitness (log ratio)” value read?
Its value is -4.7.

With C49G C85G as the variant, how does the “polymerase ribozyme fitness (log ratio)” value read?
Its value is -2.67.

With G77A A91G as the variant, how does the “polymerase ribozyme fitness (log ratio)” value read?
The value was -1.01.

With C15U G65A G69U U87G as the variant, how does the “polymerase ribozyme fitness (log ratio)” value read?
The value was -4.77.

With C73A U96C as the variant, how does the “polymerase ribozyme fitness (log ratio)” value read?
The value was 0.0129.

With C53U G69A A84C as the variant, how does the “polymerase ribozyme fitness (log ratio)” value read?
The value was -3.13.

With A24G C82G A84U U106C as the variant, how does the “polymerase ribozyme fitness (log ratio)” value read?
Its value is -2.06.

With A6G C34A as the variant, how does the “polymerase ribozyme fitness (log ratio)” value read?
The value was -2.05.

For C22U G69U, which “polymerase ribozyme fitness (log ratio)” value is on record?
Its value is -2.26.

Which “polymerase ribozyme fitness (log ratio)” value does the source give for C8A G48A C89U C124U here?
The value was 1.22.

With C62U G120A as the variant, how does the “polymerase ribozyme fitness (log ratio)” value read?
The value was 1.09.

Which “polymerase ribozyme fitness (log ratio)” value does the source give for A29C A41C C56G U59A G69U C82U A121C G135C here?
Its value is -6.04.

Which “polymerase ribozyme fitness (log ratio)” value does the source give for G44A G122A G128C here?
Its value is -3.84.

For C15U G17U A74C U78G C80U C115A, which “polymerase ribozyme fitness (log ratio)” value is on record?
Its value is -2.32.

With A5U U9A as the variant, how does the “polymerase ribozyme fitness (log ratio)” value read?
Its value is -0.246.

For G47A G69U C98U C99U, which “polymerase ribozyme fitness (log ratio)” value is on record?
The value was -2.9.

For C20A A46U G52A, which “polymerase ribozyme fitness (log ratio)” value is on record?
Its value is -3.85.

For A6C G93C A121G G127C, which “polymerase ribozyme fitness (log ratio)” value is on record?
Its value is 0.208.

Which “polymerase ribozyme fitness (log ratio)” value does the source give for C34U U54A G69U C79U G93A U96A here?
Its value is -6.73.

For C70G U78A, which “polymerase ribozyme fitness (log ratio)” value is on record?
The value was -2.44.

With G61U U81C C86G G113U A119U as the variant, how does the “polymerase ribozyme fitness (log ratio)” value read?
The value was -6.31.

With C15U C49A C72A U129C U134A G135C as the variant, how does the “polymerase ribozyme fitness (log ratio)” value read?
The value was -1.14.

For U21C A37C U81A, which “polymerase ribozyme fitness (log ratio)” value is on record?
The value was -3.15.

For C56U U116G, which “polymerase ribozyme fitness (log ratio)” value is on record?
The value was -2.23.

For G42A C56G C85G G93A G120C, which “polymerase ribozyme fitness (log ratio)” value is on record?
The value was -3.01.

For A43U C56A C115U, which “polymerase ribozyme fitness (log ratio)” value is on record?
Its value is -2.52.

With G45A G51U G58U A74U C80A as the variant, how does the “polymerase ribozyme fitness (log ratio)” value read?
Its value is -0.751.

With C12A C40A C86A C101U U106G as the variant, how does the “polymerase ribozyme fitness (log ratio)” value read?
Its value is -5.32.

Which “polymerase ribozyme fitness (log ratio)” value does the source give for C72G U130G here?
Its value is -1.24.

For G10U A27U C76G U109G, which “polymerase ribozyme fitness (log ratio)” value is on record?
Its value is -5.77.

For G60C C72U, which “polymerase ribozyme fitness (log ratio)” value is on record?
Its value is -0.882.

Which “polymerase ribozyme fitness (log ratio)” value does the source give for A46C G48U C70A G113A here?
The value was -3.12.

Which “polymerase ribozyme fitness (log ratio)” value does the source give for G10C C12U U14A G71U G107U here?
The value was -5.41.

With A50C G110A as the variant, how does the “polymerase ribozyme fitness (log ratio)” value read?
Its value is -2.37.

Which “polymerase ribozyme fitness (log ratio)” value does the source give for A66U C94A here?
The value was -2.12.

With G60A C72G C79A U87C U129C as the variant, how does the “polymerase ribozyme fitness (log ratio)” value read?
Its value is -3.89.

Which “polymerase ribozyme fitness (log ratio)” value does the source give for U14G U54C here?
Its value is -2.42.
